Where a chain is given by its changes, count along the chain named.
B1: preproecarin S396, delta IV (pDOEC37) (protein)
chain: CSIILGSGNVNDYEVVYPQKVTALPKGAVQQPEQKYEDAMQYEFEVKGEPVVLHLEKNKELFSEDYSETHYSSDDREITTNPSVEDHCYYHGRIQNDAESTASISACNGLKGHFKLRGETYFIEPLKIPDSEAHAVYKYENIENEDEAPKMCGVTQDNWESDEPIKKTLGLIVPPHERKFEKKFIELVVVVDHSMVTKYNNDSTAIRTWIYEMLNTVNEIYLPFNIRVALVGLEFWCNGDLINVTSTADDTLHSFGEWRASDLLNRKRHDHAQLLTNVTLDHSTLGITFVYGMCKSDRSVELILDYSNITFNMAYIIAHEMGHSLGMLHDTKFCTCGAKPCIMFGKESIPPPKEFSSCSYDQYNKYLLKYNPKCILDSPLRKDIASPAVCGNEIWEEGEECDCGSPADCRNPCCDAATCKLKPGAECGNGECCDKCKIRKAGTECRPARDDCDVAEHCTGQSAECPRNEFQR
B2: preproecarin S396, S170, delta IV (pDOEC39) (protein)
chain: B1 chain with C152S
B3: preproecarin S396, S170, His6 (pDOEC35) (protein)
chain: CSIILGSGNVNDYEVVYPQKVTALPKGAVQQPEQKYEDAMQYEFEVKGEPVVLHLEKNKELFSEDYSETHYSSDDREITTNPSVEDHCYYHGRIQNDAESTASISACNGLKGHFKLRGETYFIEPLKIPDSEAHAVYKYENIENEDEAPKMSGVTQDNWESDEPIKKTLGLIVPPHERKFEKKFIELVVVVDHSMVTKYNNDSTAIRTWIYEMLNTVNEIYLPFNIRVALVGLEFWCNGDLINVTSTADDTLHSFGEWRASDLLNRKRHDHAQLLTNVTLDHSTLGITFVYGMCKSDRSVELILDYSNITFNMAYIIAHEMGHSLGMLHDTKFCTCGAKPCIMFGKESIPPPKEFSSCSYDQYNKYLLKYNPKCILDSPLRKDIASPAVCGNEIWEEGEECDCGSPADCRNPCCDAATCKLKPGAECGNGECCDKCKIRKAGTECRPARDDCDVAEHCTGQSAECPRNEFQRNGQPCLNNSGYCYNGDCPIMLNQCIALFSPSATVAQDSCFQRNLQGSYYGYCTKEIGYYGKRFPCAPQDVKCGRLYCLDNSFKKNMRCKNDYSYADENKGIVEPGTKCEDGKVCINRKCVDVNTAYHHHHHH
B4: preproecarin P396, His6 (pDOEC34) (protein)
chain: B3 chain with S152C, S378P
B5: preproecarin S396, His6 (pDOEC30) (protein)
chain: B3 chain with S152C
B6: preproecarin S396, delta III, IV (pDOEC38) (protein)
chain: CSIILGSGNVNDYEVVYPQKVTALPKGAVQQPEQKYEDAMQYEFEVKGEPVVLHLEKNKELFSEDYSETHYSSDDREITTNPSVEDHCYYHGRIQNDAESTASISACNGLKGHFKLRGETYFIEPLKIPDSEAHAVYKYENIENEDEAPKMCGVTQDNWESDEPIKKTLGLIVPPHERKFEKKFIELVVVVDHSMVTKYNNDSTAIRTWIYEMLNTVNEIYLPFNIRVALVGLEFWCNGDLINVTSTADDTLHSFGEWRASDLLNRKRHDHAQLLTNVTLDHSTLGITFVYGMCKSDRSVELILDYSNITFNMAYIIAHEMGHSLGMLHDTKFCTCGAKPCIMFGKESIPPPKEFSSCSYDQYNKYLLKYNPKCILDSP
B7: preproecarin S396, S170 delta III, IV (pDOEC40) (protein)
chain: B6 chain with C152S

Target: human prothrombin, P00734

Row | Protein | Ecarin Activity, 48 Hours, +APMA | Ecarin Activity, 48 Hours, -APMA | Ecarin Activity, 120 Hours, +APMA | Ecarin Activity, 120 Hours, -APMA | prothrombin converting activity | conversion of prothrombin to thrombin by immobilized ecarin, Coomassie stained SDS-PAGE
1 | B1 | 0 | 0 | 68 | 34 | Deletion of the Cys-rich domain (positions 491 to 616) or the disintegrin and Cys-rich domains (398-616) abolished all ecarin activity in the presence or absence of APMA | 
2 | B2 | 0 | 0 | 0 | 0 | Deletion of the Cys-rich domain (positions 491 to 616) or the disintegrin and Cys-rich domains (398-616) abolished all ecarin activity in the presence or absence of APMA | 
3 | B3 | 7,526 | 12,127 | 14,850 | 20,524 | Alteration of position 170 to serine resulted in constituitive activation of proecarin, which was partially inhibited by the addition of APMA | 
4 | B4 | 32 | 36 | 0 | 43 | Proecarin having the sequence disclosed in Nishida et al. (supra) had no activity in the presence or absence of APMA | 
5 | B5 | 74,077 | 20,079 | 164,602 | 28,372 | Proecarin having a serine at position 396 was active in the absence of APMA, and the amount of activity increased several fold by pretreatment with APMA | essentially complete (greater than 95%)
6 | B6 | 0 | 0 | 14 | 0 | Deletion of the Cys-rich domain (positions 491 to 616) or the disintegrin and Cys-rich domains (398-616) abolished all ecarin activity in the presence or absence of APMA | 
7 | B7 | 50 | 0 | 0 | 0 | Deletion of the Cys-rich domain (positions 491 to 616) or the disintegrin and Cys-rich domains (398-616) abolished all ecarin activity in the presence or absence of APMA | 
